Measurements published in the supplement of paper PMC9170038.

System: MS2 coat protein
Test: apparent KD of MS2 coat protein; designed switch direction (-1 OFF switch, 1 ON switch): -1; higher = weaker reporter binding
Outline: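 The reported apparent KD is a per-design median over clusters, from curve fits of normalised cluster fluorescence. Protein titrations used SNAP-549-labelled MS2 coat protein, doubled from 0.7 or 1.5 nM to 3 µM, in Tris-HCl pH 7.5 buffer with KCl, MgCl2, BSA, DTT, tRNA and Tween-20, with no input, 200 uM small-molecule ligand, or an oligonucleotide input. The RNA switches were transcribed on Illumina chips by stalled E. coli RNA polymerase.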

[1] = input ligand: microRNA oligo, concentration not stated
[2] = Eterna round: R95, input ligand: microRNA oligo, concentration not stated

Sequence	apparent KD of MS2 coat protein (input ligand: FMN 200 uM) [nM]	apparent KD of MS2 coat protein [1] [nM]	apparent KD of MS2 coat protein (input ligand: none) [nM]	apparent KD of MS2 coat protein [2] [nM]	apparent KD of MS2 coat protein (Eterna round: R95, input ligand: FMN 200 uM) [nM]	apparent KD of MS2 coat protein (Eterna round: R95, input ligand: none) [nM]
UUAAAUCAUGUAGGAUAUGCGUGGCAAAGCUAUGCAGAAGGACAUGAGGAUCACCCAUGUUCUAGCGUCUGAGAACAGAUGCUA [Mat - Exclusion NG 1 - Mod of JL - D78] (Eterna round: R96, puzzle: Exclusion NG 1)	566	24.2	47.7			
UUAAAUCAUGUAGGAUAUGCGUGGCGAAGCUAUGCAGAAGGACAUGAGGAUCACCCAUGUGCUGCGGUCUGCGUACAGAUCGCU [JL ENG1 1.03] (Eterna round: R96, puzzle: Exclusion NG 1)	98.7	76.4	142			
UUAAAUCAUGUAGGAUAUGCGUGGCGAAGCUAUGCAGAAGGACAUGAGGAUCACCCAUGUUCAUCCGUCUGCGUACAGAUGGAA [JL Eng1 1.08 mod 1] (Eterna round: R96, puzzle: Exclusion NG 1)	271	21.6	28.2			
UUAACAUGCUGGUGAUCAUACAUGAGGAUCACCCAUGUAACAAGCUUUUUGCUCGUCUUAUAAGAUCACCAGCAUGU [Stov1/9-A1] (Eterna round: R97, puzzle: Sensor, turn-off variant 1)	14.7		12.2			
UUAACGUCAGGAUAUGCUUAAUAUAUUAUAUUAUAAUAUAUACAUGAGGAUCACCCAUGUAGAAGGGACAUUAU [LRO-Excl2-02-Fireball XL5] (Eterna round: R97, puzzle: Exclusion 2)	34.1		52.1			
UUAAUACAUGUAGGAUAUGCGUGGCGAAGCUAUGCAGAAGGACAUGAGGAUCACCCAUGUUCUAGCGUCCGCGUACGGAUGCAA [JL Eng1 1.21 mod 9] (Eterna round: R96, puzzle: Exclusion NG 1)	16.4	12	14.8			
UUAAUAGCAGCGAGAUCCCACAUGAGGAUCACCCAUGUCGUAGACGAAAAGUCUACGUUAGCUCGUCUUAUAAAUAU [Winner reversed engineered 39] (Eterna round: R97, puzzle: Sensor, turn-off variant 1)	95.1		111			
UUAAUGUGAGGAUAUCAGGUGUGAUAGAGUAAUGGUAAAUCUGAGAAGGCACAUGAGGAUCACCCAUGUUCUUC [Mat - Exclusion 4 - Mod of JL - D58] (puzzle: Exclusion 4)				21.5		
UUAAUUAAUUGACUGCAAGAUCAACAUGAGGAUCACCCAUGUGAGGAUAUCAGCUCGUUUAGAGCUGAGAAGGCACAAGCAGUC [ExNG3/16-A2] (Eterna round: R96, puzzle: Exclusion NG 3)	53.6	16.7	17.6			
UUAAUUAAUUUAAUAUAAGAUCACAUGAGGAUCACCCAUGUAUAGGAUAUCAGCUCGUUUAGAGCUGAGAAGGAUACAUAAUAU [ExNG3/2-B2] (Eterna round: R96, puzzle: Exclusion NG 3)	292	328	230			
UUAAUUAGCUCGCUAGAUCCUCACAUGAGGAUCACCCAUGUGCAGGAUAUCAGCUCGUUUAGAGCUGAGAAGGGCACUGCGAGC [ExNG3/10-A2] (Eterna round: R96, puzzle: Exclusion NG 3)	147	120	114			
UUACAAUGUCGCUUAUAAGCUUUUUGCUCGUCUUAUAUUACAUGAGGAUCACCCAUGUAGAUCAUGUGGCGUGACCU [JL ViennaUCT Maridi mod 8] (puzzle: Sensor v3, turn-off variant 2)				47.9	264	345
UUACGGCGGAUCGUGGCUUUUUGCUCGUCUUGUGCUACAACAUGAGGAUCACCCAUGUAGAGGUGAUCCGUUGUAUU [Grok-var2-19 mod JAL] (Eterna round: R96, puzzle: Sensor v3, turn-off variant 2)	342	13.4	740			
